Experimental data from US20220289816A1, “IMMUNOTHERAPY WITH B*07 RESTRICTED PEPTIDES AND COMBINATION OF PEPTIDES AGAINST CANCERS AND RELATED METHODS” (Immatics Biotechnologies GmbH, priority 2018, published 2022).

target: HLA-B*07 (Homo sapiens, UniProt P01889); test: MHC binding assay (UV-ligand exchange, ELISA of stabilized MHC complexes); conditions: peptide exchange yield on HLA-B*07, UV-ligand exchange
Text: Candidate peptides for T cell based therapies according to the present invention were further tested for their MHC binding capacity (affinity). The individual peptide-MHC complexes were produced by UV-ligand exchange, where a UV-sensitive peptide is cleaved upon UV-irradiation and exchanged with the peptide of interest as analyzed. Only peptide candidates that can effectively bind and stabilize the peptide-receptive MHC molecules prevent dissociation of the MHC complexes. To determine the yield of the exchange reaction, an ELISA was performed based on the detection of the light chain (β2m) of stabilized MHC complexes. The assay was performed as generally described in Rodenko et al. (Rodenko et al., 2006)
96 well MAXISorp plates (NUNC) were coated over night with 2 ug/ml streptavidin in PBS at room temperature, washed 4× and blocked for 1 h at 37° C. in 2% BSA containing blocking buffer. […] Peptide-MHC monomers of the UV-exchange reaction were diluted 100-fold in blocking buffer. Samples were incubated for 1 h at 37° C., washed four times, incubated with 2 ug/ml HRP conjugated anti-[…] for 1 h at 37° C., washed again and detected with TMB solution that is stopped with […]. Absorption was measured at 450 nm. Candidate peptides that show a high exchange yield (preferably higher than 50%, most preferred higher than 75%) are generally preferred for a generation and production of antibodies or fragments thereof, and/or T cell receptors or fragments thereof, as they show sufficient avidity to the MHC molecules and prevent dissociation of the MHC complexes.

Peptide exchange	Substance
++++ (>75% = ++++)	237 (LPRAGGAF; listed as Homo sapiens) [compound 237]
++++ (>75% = ++++)	238 (LPRAGGAFLM; listed as Homo sapiens) [compound 238]
+++ (>50 = +++)	239 (VLPRAGGAFLM; listed as Homo sapiens) [compound 239]
+++ (>50 = +++)	240 (RVMLPKAAL; listed as Homo sapiens) [compound 240]
+++ (>50 = +++)	242 (IPETASVVAI; listed as Homo sapiens) [compound 242]
++ (>20% = ++)	243 (MARTGGMVVI; listed as Homo sapiens) [compound 243]
++ (>20% = ++)	244 (VPAHLVAA; listed as Homo sapiens) [compound 244]
++++ (>75% = ++++)	245 (GPVPSPLAL; listed as Homo sapiens) [compound 245]
++++ (>75% = ++++)	246 (RPILKEQSSSSF; listed as Homo sapiens) [compound 246]
+++ (>50 = +++)	247 (SPVGVGQRL; listed as Homo sapiens) [compound 247]
+++ (>50 = +++)	248 (KPYDGIPAS; listed as Homo sapiens) [compound 248]
+++ (>50 = +++)	249 (SPRSGVLL; listed as Homo sapiens) [compound 249]
++ (>20% = ++)	250 (APAAPAAVPS; listed as Homo sapiens) [compound 250]
++++ (>75% = ++++)	251 (MPVDSFNSM; listed as Homo sapiens) [compound 251]
+++ (>50 = +++)	252 (QPENSLEGISL; listed as Homo sapiens) [compound 252]
++++ (>75% = ++++)	253 (MPVDSFNSML; listed as Homo sapiens) [compound 253]
++++ (>75% = ++++)	254 (RVIQGTTTL; listed as Homo sapiens) [compound 254]
++++ (>75% = ++++)	255 (VPSHWMVAL; listed as Homo sapiens) [compound 255]

Peptide exchange	Substance
++++ (>75% = ++++)	256 (SPVPSHWMVAL; listed as Homo sapiens) [compound 256]
++ (>20% = ++)	258 (SVIGPNSRL; listed as Homo sapiens) [compound 258]
++++ (>75% = ++++)	259 (VPMPGVQAV; listed as Homo sapiens) [compound 259]
++++ (>75% = ++++)	260 (LVQSSRSEV; listed as Homo sapiens) [compound 260]
+++ (>50 = +++)	261 (SPSTSRTPL; listed as Homo sapiens) [compound 261]
++++ (>75% = ++++)	262 (SPSTSRTPLLSSL; listed as Homo sapiens) [compound 262]
++ (>20% = ++)	263 (SQRPPATSQA; listed as Homo sapiens) [compound 263]
+++ (>50 = +++)	264 (APRPGNWIL; listed as Homo sapiens) [compound 264]
+++ (>50 = +++)	265 (FPRKPYEGRV; listed as Homo sapiens) [compound 265]
++++ (>75% = ++++)	266 (KPYEGRVEI; listed as Homo sapiens) [compound 266]
+++ (>50 = +++)	267 (MPVPGILL; listed as Homo sapiens) [compound 267]
++ (>20% = ++)	268 (EPLSVTASY; listed as Homo sapiens) [compound 268]
++ (>20% = ++)	269 (FTVSSSSAM; listed as Homo sapiens) [compound 269]
+++ (>50 = +++)	270 (SPRGTTSTL; listed as Homo sapiens) [compound 270]
+++ (>50 = +++)	271 (SPTPVFTTL; listed as Homo sapiens) [compound 271]
+++ (>50 = +++)	272 (SSPRGTTSTL; listed as Homo sapiens) [compound 272]
++ (>20% = ++)	273 (TDTPSTTPTTI; listed as Homo sapiens) [compound 273]
+++ (>50 = +++)	274 (KPIRTGISPLAL; listed as Homo sapiens) [compound 274]

The remaining lines, values behind:

Substance	Peptide exchange
196 (RPSGTAGAAL; listed as Homo sapiens) [compound 196]	+++ (>50 = +++)
197 (RPSGTAGAALLA; listed as Homo sapiens) [compound 197]	++ (>20% = ++)
198 (LPSPAHAFRAL; listed as Homo sapiens) [compound 198]	+++ (>50 = +++)
199 (SPFWIHQA; listed as Homo sapiens) [compound 199]	++ (>20% = ++)
201 (LPIARVLTV; listed as Homo sapiens) [compound 201]	++++ (>75% = ++++)
202 (SPSREASAL; listed as Homo sapiens) [compound 202]	+++ (>50 = +++)
203 (KPRGPIDI; listed as Homo sapiens) [compound 203]	++ (>20% = ++)
204 (FPYSGDKILV; listed as Homo sapiens) [compound 204]	+++ (>50 = +++)
206 (TPRIGPKVSL; listed as Homo sapiens) [compound 206]	+++ (>50 = +++)
207 (VPSDITTAF; listed as Homo sapiens) [compound 207]	+++ (>50 = +++)
208 (RNRQVATAL; listed as Homo sapiens) [compound 208]	+++ (>50 = +++)
209 (KIEQIRAVL; listed as Homo sapiens) [compound 209]	+++ (>50 = +++)
210 (IPENRVVSY; listed as Homo sapiens) [compound 210]	++ (>20% = ++)
211 (IPDTIASVL; listed as Homo sapiens) [compound 211]	+++ (>50 = +++)
212 (VPYAAQAAL; listed as Homo sapiens) [compound 212]	++++ (>75% = ++++)
213 (RPYQDAPVA; listed as Homo sapiens) [compound 213]	++++ (>75% = ++++)
214 (LPLKFFPII; listed as Homo sapiens) [compound 214]	+ (>10% = +)
215 (IPVAIKEL; listed as Homo sapiens) [compound 215]	++ (>20% = ++)
216 (LPWEQNEQV; listed as Homo sapiens) [compound 216]	+++ (>50 = +++)

Substance	Peptide exchange
217 (SPGDKRLAAYL; listed as Homo sapiens) [compound 217]	+++ (>50 = +++)
219 (VPHTGRYTCL; listed as Homo sapiens) [compound 219]	+++ (>50 = +++)
220 (RPAPGPAPFV; listed as Homo sapiens) [compound 220]	+++ (>50 = +++)
221 (LPQRPNARL; listed as Homo sapiens) [compound 221]	+++ (>50 = +++)
222 (MLKTTLTAF; listed as Homo sapiens) [compound 222]	+ (>10% = +)
223 (KAHVRIEL; listed as Homo sapiens) [compound 223]	++ (>20% = ++)
224 (SPIIHSILL; listed as Homo sapiens) [compound 224]	++++ (>75% = ++++)
225 (SPIIHSIL; listed as Homo sapiens) [compound 225]	+++ (>50 = +++)
226 (APGGSSRSSL; listed as Homo sapiens) [compound 226]	+++ (>50 = +++)
227 (RPGTGQGGL; listed as Homo sapiens) [compound 227]	+++ (>50 = +++)
228 (RPTAASQSRAL; listed as Homo sapiens) [compound 228]	+++ (>50 = +++)
229 (FPNAGPRHLL; listed as Homo sapiens) [compound 229]	+++ (>50 = +++)
230 (DVIDDIISL; listed as Homo sapiens) [compound 230]	++++ (>75% = ++++)
231 (SPITLQAL; listed as Homo sapiens) [compound 231]	++++ (>75% = ++++)
232 (TAYPSLRLL; listed as Homo sapiens) [compound 232]	+++ (>50 = +++)
233 (MAYDRFIAI; listed as Homo sapiens) [compound 233]	+++ (>50 = +++)
234 (HPRAPGEQQRL; listed as Homo sapiens) [compound 234]	+++ (>50 = +++)
235 (AQNPAGTAL; listed as Homo sapiens) [compound 235]	+ (>10% = +)
236 (TPELKSSIL; listed as Homo sapiens) [compound 236]	+++ (>50 = +++)
